From the supplement of paper PMC10567573

B1: CLK3 (parent)
chain: FGEDYYGPSRSRHRRRSRERGPYR
B2: SCNN1D (parent)
chain: FLGHHSFSVRPGTEATISIREDEV

Variants of: B1
Test: protein stability index of a GFP-peptide fusion (GPS, HEK-293T) (PSI 1-6); higher = more stable
Conditions: c terminus: a fixed tail appended
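Further: lentivirally expressed fusions sorted by FACS into six bins by GFP to DsRed ratio, PSI derived from sequencing read proportions per bin multiplied by bin number.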

Variant	protein stability index
R15C	1.57
R15D	2.34
R15E	1.95
R15F	1.85
R15G	1.98
R15H	2.18
R15I	2.43
R15K	3.27
R15L	2.23
R15M	3.55
R15N	2.47
R15P	2.54
R15Q	1.98
R15S	2.04
R15T	1.91
R15V	2.1
R15W	2.11
R15Y	2.69
R16A	1.87
R16C	1.97
R16D	2.15
R16E	2.86
R16F	1.64
R16G	2.52

Variant	protein stability index
R16H	2.35
R16I	1.96
R16K	2.46
R16L	1.62
R16M	1.9
R16N	2.26
R16P	1.63
R16Q	2.97
R16S	1.77
R16T	2.2
R16V	2.23
R16W	2.33
S17A	2.85
S17C	2.83
S17D	2.58
S17E	2.01
S17F	3.51
S17G	3.1
S17H	3.52
S17I	3.18
S17K	2.81
S17L	2.43
S17M	3.93
S17N	3.93

Variant	protein stability index
S17P	2.6
S17Q	2.89
S17R	4.26
S17T	3.45
S17V	2.86
S17W	4.02
S17Y	3.4
R18A	2.06
R18C	2.21
R18E	1.8
R18F	2.73
R18G	2.54
R18I	2.23
R18K	2.46
R18L	2.22
R18M	2.89
R18N	1.96
R18P	2.37
R18Q	2.45
R18S	1.83
R18T	2.32
R18V	2.29
R18W	3.29
R18Y	2.36

Variant	protein stability index
E19A	3.59
E19C	4.35
E19D	3.87
E19F	4.17
E19G	4.06
E19H	4.09
E19I	3.96
E19K	4.05
E19L	3.42
E19M	4.15
E19N	3.95
E19P	4.39
E19Q	3.2
E19R	4.55
E19S	3.65
E19T	3.81
E19V	4.11
E19W	4.71
E19Y	3.94
R20A	2.47
R20C	2.72
R20D	2.56
R20E	2.27
R20F	3.04

Variant	protein stability index
R20G	2.21
R20H	2.44
R20I	2.21
R20K	2.62
R20L	2.45
R20M	2.3
R20N	2.11
R20P	2.65
R20Q	2.79
R20S	2.24
R20T	2.39
R20V	2.22
R20W	2.85
R20Y	2.3
G21A	2.69
G21C	3.2
G21D	2.47
G21E	2.11
G21F	3.47
G21H	3.13
G21I	2.93
G21K	3.15
G21L	2.91
G21M	3.38

Variant	protein stability index
G21N	2.33
G21P	2.95
G21Q	2.8
G21R	3.2
G21S	1.41
G21T	2.53
G21V	2.39
G21W	4.06
G21Y	3.37
P22A	2.82
P22C	2.8
P22D	2.8
P22E	2.05
P22F	2.62
P22G	2.54
P22H	2.65
P22I	2.2
P22K	2.19
P22L	2.37
P22M	2.54
P22N	2.54
P22Q	2.65
P22R	1.97
P22S	2.21

Variant	protein stability index
P22T	2.82
P22V	3.03
P22W	3.26
P22Y	2.39
Y23A	2.19
Y23C	2.47
Y23D	2.89
Y23E	2.35
Y23F	1.65
Y23G	2.43
Y23H	2.38
Y23I	2.31
Y23K	2.3
Y23L	2.16
Y23M	2.48
Y23N	2.67
Y23P	2.61
Y23Q	3.46
Y23R	2.11
Y23S	2.62
Y23T	2.27
Y23V	3.15
Y23W	2.46
R24A	2.02

Variant	protein stability index
R24C	1.92
R24D	1.9
R24E	2.32
R24F	2.8
R24G	3.26
R24H	2.67
R24I	2.68
R24K	2.62
R24L	1.96
R24M	2.85
R24N	2.46
R24P	3.48
R24Q	2.14
R24S	2.46
R24T	1.81
R24V	2.46
R24W	2.18
R24Y	2.35

Variants of: B2
Test: as above
Conditions: c terminus: a fixed tail appended

Variant	protein stability index
F1A	3.92
F1C	3.57
F1D	4.78
F1E	5.02
F1G	4.59
F1H	4.49
F1I	4.02
F1K	4.3
F1L	3.99
F1M	4.68
F1N	4.38
F1P	4.64
F1Q	4.33
F1R	4.42
F1S	4.38
F1T	4.8
F1V	4.15
F1W	2.77
F1Y	1.97
L2A	1.66
L2C	2.18
L2D	5.03
L2E	4.5
L2F	2.93
L2G	2.72

Variant	protein stability index
L2H	1.33
L2I	2.44
L2K	4.07
L2M	1.95
L2N	3.15
L2P	1.72
L2Q	1.95
L2R	4.48
L2S	1.76
L2T	3.09
L2V	2.64
L2W	2.4
L2Y	3.44
G3A	1.95
G3C	2.51
G3D	2.77
G3E	2.58
G3F	3.48
G3H	2.71
G3I	1.59
G3K	3.02
G3L	2.28
G3M	1.42
G3N	2.26
G3P	4.02

Variant	protein stability index
G3R	2.09
G3S	2.42
G3T	2.23
G3V	1.64
G3Y	3.25
H4A	2.74
H4C	1.39
H4D	3.7
H4E	3.39
H4F	3.4
H4G	2.2
H4I	2.64
H4K	2.16
H4L	2.08
H4M	1.58
H4N	2.29
H4P	1.7
H4Q	1.32
H4R	2.68
H4S	1.9
H4T	2.16
H4V	1.77
H4Y	1.42
H5A	2.46
H5C	1.53

Variant	protein stability index
H5D	2.02
H5E	1.78
H5G	2.3
H5I	1.64
H5K	3.06
H5L	2.28
H5M	2.33
H5N	1.71
H5P	2.13
H5Q	1.25
H5R	2.55
H5S	1.75
H5T	1.54
H5V	1.33
H5W	3.19
H5Y	1.89
S6A	3.88
S6C	2.25
S6D	2.13
S6E	2.73
S6F	2.92
S6G	1.16
S6H	2.08
S6K	1.7
S6M	2.96

Variant	protein stability index
S6N	2.08
S6P	1.46
S6Q	1.76
S6R	2.19
S6T	2.02
S6V	1.88
S6W	1.85
S6Y	2.88
F7A	4.31
F7C	3.6
F7D	4.41
F7E	4.81
F7G	4.43
F7H	4.17
F7I	3.65
F7K	4.54
F7L	4.01
F7M	4.18
F7N	4.38
F7P	4.44
F7Q	3.98
F7R	3.94
F7S	4.1
F7T	4.81
F7V	3.88

Variant	protein stability index
F7W	3.24
F7Y	2.38
S8A	3.59
S8C	4.76
S8D	3.02
S8E	2.48
S8F	1.37
S8G	2.43
S8H	2.12
S8I	2.04
S8K	1.57
S8L	1.65
S8M	1.75
S8N	2.4
S8P	3.49
S8Q	1.78
S8R	1.96
S8T	1.62
S8V	1.8
S8W	2.68
S8Y	1.86
V9A	2.36
V9C	2.08
